Experiments:
Conditions in all cases: Homo sapiens; call rule not given here
[1] = test system: C[C@H](Cn1cnc2c(N)ncnc21)OCP(=O)(O)O; experiment: (§1) Activity of recombinant AK2 (unknown origin) assessed as ADP formation by spectroscopic pyruvate kinase/lactate dehydrogenase coupled assay
[2] = test system: Nc1ncnc2c1ncn2-c1ccc(CO)o1; experiment: as §1
[3] = test system: Nc1ncnc2c1ncn2-c1ccc(COCP(=O)(O)O)o1; experiment: as §1
[4] = test system: Nc1ncnc2c1ncn2CCOCP(=O)(O)O; experiment: as §1
[5] = test system: Nc1ncnc2c1ncn2[C@@H]1O[C@H](COP(=O)(O)O)[C@@H](O)[C@H]1O; experiment: as §1
[6] = test system: Nc1ncnc2c1ncn2[C@H]1C[C@H](O)[C@@H](COP(=O)(O)O)O1; experiment: as §1
[7] = test system: C[C@H](Cn1cnc2c(N)ncnc21)OCP(=O)(O)O; experiment: (§2) Ratio of Kcat to Km for recombinant AK2 (unknown origin)
[8] = test system: Nc1ncnc2c1ncn2-c1ccc(CO)o1; experiment: as §2
[9] = test system: Nc1ncnc2c1ncn2-c1ccc(COCP(=O)(O)O)o1; experiment: as §2
[10] = test system: Nc1ncnc2c1ncn2CCOCP(=O)(O)O; experiment: as §2
[11] = test system: Nc1ncnc2c1ncn2[C@@H]1O[C@H](COP(=O)(O)O)[C@@H](O)[C@H]1O; experiment: as §2
[12] = test system: Nc1ncnc2c1ncn2[C@H]1C[C@H](O)[C@@H](COP(=O)(O)O)O1; experiment: as §2

With “Adenylate kinase 2, mitochondrial (Homo sapiens) (from UniProt P54819)” the Km [1] was 3000 µM, the kcat [1] was 2.4 s⁻¹ and the Km [2] was “Not Active”. The kcat [2] was “Not Active”, the Km [3] was 420 µM and the kcat [3] was 1.06 s⁻¹. For the same substance, the Km [4] was 6000 µM, the kcat [4] was 1.5 s⁻¹ and the Km [5] was 380 µM. It also gave a kcat [5] of 80 s⁻¹, a Km [6] of 210 µM and a kcat [6] of 110 s⁻¹. For the same substance, the kcat/Km [7] was 800 M⁻¹ s⁻¹, the kcat/Km [8] was “Not Active” and the kcat/Km [9] was 0.025 ×10⁶ /M/s. The kcat/Km [10] was 250 ×10⁶ /M/s, the kcat/Km [11] was 0.21 ×10⁶ /M/s and the kcat/Km [12] was 0.5 ×10⁶ /M/s.

Source: ChEMBL document CHEMBL3352481, “Synthesis of {[5-(adenin-9-yl)-2-furyl]methoxy}methyl phosphonic acid and evaluations against human adenylate kinases” (Bioorg Med Chem Lett, 2014)
